Source: patent US20210196823A1, “Methods of Treating Metabolic Disease” (Pfizer Inc., priority 2018, published 2021)

Tests used:
BMP4 = biological target: T1, BMP4 (Homo sapiens, UniProt P12644); assay: Biacore SPR, BMP run against ERFE A4-biotin on CM4 chip; format: binding; conditions: BMP 50 nM, MES-Tris buffer pH6.0, 25° C.
T1 sequence (P12644 293-408): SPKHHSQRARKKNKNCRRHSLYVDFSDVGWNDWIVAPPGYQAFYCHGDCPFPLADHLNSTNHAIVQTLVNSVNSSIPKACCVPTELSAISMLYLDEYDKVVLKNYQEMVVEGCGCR
Description: (§1) Iron absorption is tightly regulated by erythropoietic demand via control of hepcidin expression. Erythropoietin (EPO) causes hepcidin suppression, at least in part by increasing synthesis of the hormone erythroferrone (ERFE). ERFE is produced by erythroblasts after bleeding or EPO treatment, and acts on hepatocytes to suppress hepcidin expression and increase iron availability. ERFE knock out mice fail to suppress hepcidin after phlebotomy and show delayed recovery from blood loss. Furthermore, serum ERFE concentrations are increased in humans after blood loss and EPO administration, and in β-thalassemia patients. Hepcidin expression is modulated via the BMP/SMAD signalling pathway. […] We sought to determine whether the mechanism by which ERFE suppresses hepcidin is through interaction with BMP. Binding constants were measure using Biacore SPR. BMPs 2, 4, 6 at 50 nM was run against ERFE A4-biotin amine coupled to CM4 sensor chip in MES-Tris buffer pH6.0, 25° C.

BMP6 = biological target: T2, BMP6 (Homo sapiens, UniProt P22004); assay: as above; format: binding
T2 sequence (P22004 375-513): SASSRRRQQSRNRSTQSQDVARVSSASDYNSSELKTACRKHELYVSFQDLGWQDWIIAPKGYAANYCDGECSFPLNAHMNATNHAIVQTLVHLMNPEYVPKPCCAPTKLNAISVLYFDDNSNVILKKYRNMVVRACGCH
Description: as §1

BMP2 = biological target: T3, BMP2 (Homo sapiens, UniProt P12643); assay: as above; format: binding; conditions: BMP 50 nM, MES-Tris buffer pH6.0, 25° C.
T3 sequence (P12643 283-396): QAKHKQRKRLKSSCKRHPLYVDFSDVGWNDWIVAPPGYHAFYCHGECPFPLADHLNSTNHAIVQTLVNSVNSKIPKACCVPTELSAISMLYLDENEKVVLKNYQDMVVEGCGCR
Description: as §1

abdominal preadipocytes = assay: Western blot of phospho- and total SMAD1/5/8 in preadipocytes; format: cell-based, Human; conditions: abdominal cells, 30 minutes
Method: (a) Primary pre-adipocyte isolation. Human primary pre-adipocytes were prepared by isolation from white adipose tissue (WAT) biopsies taken under local anesthetic (1% lignocaine) by needle aspiration at the level of the umbilicus (ASAT) and from the upper-, outer-quadrant of the gluteal region (GSAT). Primary preadipocytes were isolated from ASAT and GSAT biopsies by mechanically mincing using scissors, washed twice with Hanks' buffered salt solution to remove contaminating blood, and then enzymatically digested in 1 mg/ml collagenase (Roche Applied Science) in Hanks' buffered salt solution in a shaking water bath (90 rpm) at 37° C. for 45 min. The digested tissue was centrifuged at 1000 rpm for 5 min at 4° C. The pellet containing stromal-vascular cells was resuspended in Dulbecco's modified Eagle's medium/F12 Ham's nutrient mixture (v/v, 1:1) containing 17.5 mM glucose and supplemented with 10% foetal calf serum, 0.25 ng/ml fibroblast growth factor, 2 mM glutamine, 100 units/ml penicillin and 100 μg/ml streptomycin. Cell stocks of APAD and GPAD cells were prepared and stored in liquid nitrogen for future studies. […]

Huh7 cells = assay: HAMP and ID1 qRT-PCR in Huh7 cells treated with BMPs with or without mouse ERFE; format: cell-based; conditions: a variety of different cell types
Method: (b) Gene expression microarray: Microarray analysis of Huh7 cells treated with mouse or human erythroferrone was carried out to test the activity of erythroferrone on the BMP/SMAD signalling pathway. Generally cell treatments were carried out according to the following protocol: Huh7 and HepG2 were cultured in Dulbecco's Modified Eagle's Medium—High Glucose (Sigma), supplemented with 10% Fetal Bovine Serum (Sigma), 1% Penicillin-Streptomycin (Sigma) and 1% L-Glutamine (Sigma), unless otherwise indicated. Cells were plated 24 h before treatments in 24-well (gene expression analysis) or 12-well (protein analysis) cell culture plates. At the time of treatment, cells were washed with PBS and fresh media was added.
(c) RNA isolation, cDNA synthesis and qRT-PCR: Suppression of several BMP-target genes: HAMP, ID1, ID3, SMAD6 and SMAD7 was further confirmed by qRT-PCR. Cells were lysed and RNA was isolated using the RNeasy Plus kit (Qiagen), followed by RNA quantification and quality assessment using Nanodrop (Thermo Fisher). cDNA was synthesized using the High Capacity RNA-to-cDNA kit (Applied Biosystems). Gene expression was assessed using quantitative real-time PCR with Taqman Gene Expression Master Mix and inventoried Taqman Gene expression assays (Applied Biosystems) specific for the genes of interest according to the manufacturer's instructions. […]

B1: ERFE: hormone erythroferrone (FAM132b); recombinant protein, species or construct not stated at the place (SPR used ERFE A4-biotin) (protein)
chain: AAGLGSPEPGAPSRSAAAAEPPPGNELPRGPGESRAGPAARPPEPTAERAHSVDPRDAWMLFVRQSDKGVNGKKRSRGKAKKLKFGLPGPPGPPGPQGPPGPIIPPEALLKEFQLLLKGAVRQRERAEPEPCTCGPAGPVAASLAPVSATAGEDDDDVVGDVLALLAAPLAPGPRAPRVEAAFLCRLRRDALVERRALHELGVYYLPDAEGAFRRGPGLNLTSGQYRAPVAGFYALAATLHVALGEPPRRGPPRPRDHLRLLICIQSRCQRNASLEAIMGLESSSELFTISVNGVLYLQMGQWTSVFLDNASGCSLTVRSGSHFSAVLLGV
- Kd of ERFE binding to BMP4 (BMP4): nanomolar
- Kd of ERFE binding to BMP6 (BMP6; BMP 50 nM, MES-Tris buffer pH6.0, 25° C.): nanomolar
- tightness of ERFE binding among BMPs 2, 4 and 6 (BMP6; SPR (Biacore)): most tightly
- Kd of ERFE binding to BMP2 (BMP2): nanomolar
- BMP2-induced SMAD1/5/8 phosphorylation on addition of ERFE (abdominal preadipocytes): diminished
- inhibitory action on BMP2 and 4 and BMP2/6 heterodimer (Huh7 cells): Inhibitory action is also seen
